This assay addresses GLP-1 receptor of RIN-m5F rat insulinoma cells (rat) (UniProt P32301).

Substance Exendin-4(Lys27)-PEG-Fc displayed an In-vitro titer (%) (EC50 of cAMP in RIN-m5F cells, compared) of 6.3%.

For Exendin-4(N)-PEG-Fc, the In-vitro titer (%) (EC50 of cAMP in RIN-m5F cells, compared) is under 0.2%.

For the origin of these results see US20150056223A1, “PHARMACEUTICAL COMPOSITION FOR THE PREVENTION OR TREATMENT OF NON-ALCOHOLIC FATTY LIVER DISEASE” (HANMI SCIENCE CO., LTD, priority 2012, published 2015).
